± gives the uncertainty stated by the source.
Assay: self-splicing fitness, log relative to wild type (ln ratio); higher = more splicing; Tetrahymena group I intron in knt gene, E. coli kanamycin selection, DiMSum; sequences stand for … in CUCUCU…GGAGGGAAAAGUUAUCAGGCAUGCACCUGGUAGCUAGUCUUUAAACCAAUAGAUUGCAUCGGUUUAAAAGGCAAGACCGUCAAAUUGCGGGAAAGGGGUCAACAGCCGUUCAGUACCAAGUCUCAGGGGAAACUUUGAGAUGGCCUUGCAAAGGGUAUGGUAAUAAGCUGACGGACAUGGUCCUAACCACGCAGCCAAGUCCUAAGUCAACAGAUCUUCUGUUGAUAUGGAUGCAGUUCACAGACUAAAUGUCGGUCGGGGAAGAUGUAUUCUUCUCAUAAGAUAUAGUCGGACCUCUCCUUAAUGGGAGCUAGCGGAUGAAGUGAUGCAACACUGGAGCCGCUGGGAACUAAUUUGUAUGCGAAAGUAUAUUGAUUAGUUUUGGAGUACUCGUGGUCG
Method in brief: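 The eight P1ex-region nucleotides of an intron in the knt kanamycin-resistance gene on pET-22b(+) were all randomised and the library put into E. coli BL21(DE3). Six replicate transformations were grown overnight at 37°C or 30°C on LB agar with or without 25 μg/mL kanamycin, together with 100 μg/mL carbenicillin, 50 μM IPTG and 0.2% rhamnose. Colonies were pooled and amplicon-sequenced on an Illumina HiSeq 2500. Fitness from DiMSum is the error-weighted combination of wild-type-normalised replicate fold changes, kanamycin over none.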

Sequence	self-splicing fitness (ln) (37 °C)	self-splicing fitness (ln) (30 °C)
AUUGAGCAAUAUUACGUCUC	-2.21 ± 0.42	
AUUGAGCAAUAUUACGUGAC	-1.61 ± 0.45	
AUUGAGCAAUAUUACGUGUA	-2.69 ± 0.24	-3.52 ± 0.21
AUUGAGCAAUAUUACGUUAC	-1.76 ± 0.3	
AUUUAGCAAUAUUACGAAUA	-0.575 ± 0.27	-2.16 ± 0.33
AUUUAGCAAUAUUACGACAU	0.28 ± 0.033	0.163 ± 0.014
AUUUAGCAAUAUUACGACGU	0.539 ± 0.077	0.023 ± 0.064
AUUUAGCAAUAUUACGAGAA	-1.2 ± 0.28	-2.09 ± 0.32
AUUUAGCAAUAUUACGAGCC		-1.74 ± 0.46
AUUUAGCAAUAUUACGAGUG	-0.743 ± 0.18	-2.59 ± 0.18
AUUUAGCAAUAUUACGAUAA	-0.502 ± 0.39	-1.53 ± 0.2
AUUUAGCAAUAUUACGAUUG	-2.05 ± 0.27	-2.72 ± 0.21
AUUUAGCAAUAUUACGCAGA	-1.07 ± 0.19	-2.07 ± 0.3
AUUUAGCAAUAUUACGCCCG	-1.15 ± 0.28	-1.48 ± 0.24
AUUUAGCAAUAUUACGCCUU	-0.0916 ± 0.12	-0.196 ± 0.092
AUUUAGCAAUAUUACGCUCA	0.0165 ± 0.19	-1.14 ± 0.18
AUUUAGCAAUAUUACGCUGU	-1.01 ± 0.16	-1.33 ± 0.14
AUUUAGCAAUAUUACGGACA	-0.739 ± 0.27	-1.34 ± 0.27
AUUUAGCAAUAUUACGGACG	-1.75 ± 0.24	-2.26 ± 0.24
AUUUAGCAAUAUUACGGACU	0.805 ± 0.13	0.0925 ± 0.11
AUUUAGCAAUAUUACGGAUG	-1.91 ± 0.2	-1.94 ± 0.14
AUUUAGCAAUAUUACGGCAC		-0.95 ± 0.27
AUUUAGCAAUAUUACGGCGC	-0.248 ± 0.22	-0.408 ± 0.16
AUUUAGCAAUAUUACGGCUC	0.0525 ± 0.11	-0.153 ± 0.097
AUUUAGCAAUAUUACGGCUG	-0.723 ± 0.13	-0.937 ± 0.12

Sequence	self-splicing fitness (ln) (37 °C)	self-splicing fitness (ln) (30 °C)
AUUUAGCAAUAUUACGGGAC	-1.32 ± 0.26	-2.36 ± 0.32
AUUUAGCAAUAUUACGGGUC	-2.23 ± 0.34	
AUUUAGCAAUAUUACGGUGC	-1.55 ± 0.23	-4.12 ± 0.46
AUUUAGCAAUAUUACGGUUG		-2.68 ± 0.39
AUUUAGCAAUAUUACGUACG	-1.66 ± 0.34	-1.48 ± 0.19
AUUUAGCAAUAUUACGUAUG	-0.838 ± 0.41	-2.35 ± 0.34
AUUUAGCAAUAUUACGUGUC	-2.87 ± 0.43	-2.55 ± 0.42
AUUUAGCAAUAUUACGUUAG	-2.61 ± 0.25	-3.03 ± 0.47
AUUUAGCAAUAUUACGUUUG	-1.25 ± 0.16	-3.78 ± 0.21
CAAAAGCAAUAUUACGAAGU	-2.23 ± 0.13	-3.16 ± 0.15
CAAAAGCAAUAUUACGACGC	-1.14 ± 0.14	-0.886 ± 0.092
CAAAAGCAAUAUUACGAUUG	-1.82 ± 0.1	-2.75 ± 0.087
CAAAAGCAAUAUUACGCAGA	-1.49 ± 0.17	-2.57 ± 0.25
CAAAAGCAAUAUUACGCCAC	-1.89 ± 0.34	-2.1 ± 0.24
CAAAAGCAAUAUUACGCGCU	-0.642 ± 0.1	-3.18 ± 0.14
CAAAAGCAAUAUUACGCUGC	-3.03 ± 0.29	-3.02 ± 0.25
CAAAAGCAAUAUUACGGACC	-1.98 ± 0.2	-3 ± 0.21
CAAAAGCAAUAUUACGGAGC	-2.84 ± 0.25	-2.95 ± 0.18
CAAAAGCAAUAUUACGGCCA	-0.283 ± 0.16	-1.68 ± 0.21
CAAAAGCAAUAUUACGGGAC	-1.71 ± 0.17	-3.76 ± 0.35
CAAAAGCAAUAUUACGGUAC	-1.24 ± 0.18	-3.79 ± 0.23
CAAAAGCAAUAUUACGUGUA	-2.25 ± 0.1	-3.88 ± 0.16
CAAAAGCAAUAUUACGUUAA	-2.06 ± 0.12	-2.65 ± 0.16
CAAAAGCAAUAUUACGUUGC	-3.17 ± 0.23	-3.74 ± 0.18
CAAAAGCAAUAUUACGUUUC	-2.76 ± 0.2	-3.1 ± 0.28

Sequence	self-splicing fitness (ln) (37 °C)	self-splicing fitness (ln) (30 °C)
CAACAGCAAUAUUACGACUU	-0.268 ± 0.074	-0.591 ± 0.058
CAACAGCAAUAUUACGAGCG	0.702 ± 0.077	-0.235 ± 0.051
CAACAGCAAUAUUACGAUCC	-1.4 ± 0.16	-2.87 ± 0.2
CAACAGCAAUAUUACGAUGC	-2.01 ± 0.16	-3.08 ± 0.15
CAACAGCAAUAUUACGCACA	-0.561 ± 0.083	-1.23 ± 0.077
CAACAGCAAUAUUACGCCGA	-1.76 ± 0.17	-2.35 ± 0.18
CAACAGCAAUAUUACGCCGC		-4.57 ± 0.34
CAACAGCAAUAUUACGCCUU	-1.1 ± 0.081	-2.95 ± 0.11
CAACAGCAAUAUUACGCGGC	-2.09 ± 0.23	-3.03 ± 0.21
CAACAGCAAUAUUACGGAAG	-0.607 ± 0.061	-0.947 ± 0.045
CAACAGCAAUAUUACGGACC	-0.864 ± 0.23	-2.98 ± 0.27
CAACAGCAAUAUUACGGAGC	-3.18 ± 0.27	-2.28 ± 0.15
CAACAGCAAUAUUACGGAGU	-1.22 ± 0.12	-3.71 ± 0.17
CAACAGCAAUAUUACGGCUA	-0.553 ± 0.073	-1.28 ± 0.073
CAACAGCAAUAUUACGGCUG	-1.24 ± 0.11	-1.27 ± 0.077
CAACAGCAAUAUUACGGUAA	-1.61 ± 0.094	-1.71 ± 0.089
CAACAGCAAUAUUACGGUUG	-2.27 ± 0.12	-3.26 ± 0.1
CAACAGCAAUAUUACGUAAA	-1.91 ± 0.098	-2.42 ± 0.069
CAACAGCAAUAUUACGUAGC	-2.49 ± 0.12	-4.19 ± 0.12
CAACAGCAAUAUUACGUAGU	-1.91 ± 0.11	-3.22 ± 0.12
CAACAGCAAUAUUACGUCCA	-1.35 ± 0.13	-1.75 ± 0.11
CAACAGCAAUAUUACGUCGA	-0.379 ± 0.077	-1.37 ± 0.09
CAACAGCAAUAUUACGUGUA	-1.76 ± 0.075	-2.41 ± 0.076
CAAGAGCAAUAUUACGAACA	-2.49 ± 0.33	
CAAGAGCAAUAUUACGAAGC	-2.86 ± 0.24	-3.5 ± 0.23

Sequence	self-splicing fitness (ln) (37 °C)	self-splicing fitness (ln) (30 °C)
CAAGAGCAAUAUUACGAGGA	-2.79 ± 0.44	-3.17 ± 0.33
CAAGAGCAAUAUUACGAUCA	-2.02 ± 0.24	-1.72 ± 0.16
CAAGAGCAAUAUUACGAUGU	-2.73 ± 0.25	-3.88 ± 0.23
CAAGAGCAAUAUUACGCUGG	-1.99 ± 0.19	-3.84 ± 0.3
CAAGAGCAAUAUUACGCUUG	-2.99 ± 0.47	
CAAGAGCAAUAUUACGGAGA	-1.91 ± 0.22	-2.57 ± 0.28
CAAGAGCAAUAUUACGGAUU	-3.21 ± 0.37	-3.03 ± 0.25
CAAGAGCAAUAUUACGGGGU	-2.61 ± 0.19	-4.66 ± 0.2
CAAGAGCAAUAUUACGGUAC	-2.37 ± 0.21	-3.2 ± 0.26
CAAGAGCAAUAUUACGGUCG	-0.728 ± 0.065	-0.431 ± 0.05
CAAGAGCAAUAUUACGUAGU	-1.78 ± 0.19	-3.51 ± 0.2
CAAGAGCAAUAUUACGUCGU	-2.66 ± 0.25	-3.72 ± 0.23
CAAGAGCAAUAUUACGUGGU	-2.46 ± 0.16	-3.24 ± 0.11
CAAGAGCAAUAUUACGUUCU	-3.35 ± 0.23	-3.7 ± 0.27
CAAUAGCAAUAUUACGAAAU	-2.42 ± 0.23	-3.12 ± 0.15
CAAUAGCAAUAUUACGAAUA	-3.26 ± 0.32	-2.97 ± 0.39
CAAUAGCAAUAUUACGACAC	-1.88 ± 0.21	-3.61 ± 0.34
CAAUAGCAAUAUUACGACAG	0.138 ± 0.094	-0.279 ± 0.077
CAAUAGCAAUAUUACGACUA	-1.31 ± 0.27	-1.96 ± 0.36
CAAUAGCAAUAUUACGAGAG	-1.52 ± 0.12	-3.64 ± 0.23
CAAUAGCAAUAUUACGAUCA	-2.17 ± 0.16	-2.41 ± 0.17
CAAUAGCAAUAUUACGAUGC	-2.23 ± 0.23	-3.6 ± 0.24
CAAUAGCAAUAUUACGAUUG	-1.9 ± 0.16	-3.32 ± 0.17
